From patent US20130097734A1

Assays:
Test in all cases: cell-based or functional assay
[1] = molecular target: T1, AVR3a homolog from Phytophthora palmivora designated as L3B (Phytophthora palmivora)
T1 sequence: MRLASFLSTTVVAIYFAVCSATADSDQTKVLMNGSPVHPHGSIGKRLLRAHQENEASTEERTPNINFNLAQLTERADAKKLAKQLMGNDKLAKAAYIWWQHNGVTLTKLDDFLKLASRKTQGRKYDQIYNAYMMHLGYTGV

[2] = molecular target: AVR3a^KI effector protein of Phytophthora infestans (Phytophthora infestans) (UniProt Q572D3)
[3] = molecular target: T2, AVR3a homolog from Phytophthora palmivora designated as L6B (Phytophthora palmivora)
T2 sequence: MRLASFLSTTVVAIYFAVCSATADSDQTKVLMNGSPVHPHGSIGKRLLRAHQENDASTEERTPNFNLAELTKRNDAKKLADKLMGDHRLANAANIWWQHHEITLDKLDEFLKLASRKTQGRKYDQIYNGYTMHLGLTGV

[4] = molecular target: T3, AVR3a homolog from Phytophthora palmivora designated as L7B (Phytophthora palmivora)
T3 sequence: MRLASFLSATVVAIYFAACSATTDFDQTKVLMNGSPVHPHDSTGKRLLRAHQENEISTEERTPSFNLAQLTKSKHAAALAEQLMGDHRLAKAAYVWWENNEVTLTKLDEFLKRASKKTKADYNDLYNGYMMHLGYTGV

B1: wild-type R3a protein (protein)
chain: MEIGLAVGGAFLSSALNVLFDRLAPHGDLLNMFQKHKDHVKLLKKLEDILLGLQIVLSDAENKQASNRHVSQWFNKLQNAVDGAENLIEQVNYEALRLKVEGQHQNLAETSNQQVSDLNLCFSDDFFLNIKDKLEETIETLEVLEKQIGRLGLKEHFGSTKQETRTPSTSLVDDSDIFGRQNDIEDLIDRLLSEDASGKKRTVVPIVGMGGLGKTTLAKAVYNDERVQIHFGLKAWFCVSEAFDAFRITKGLLQEIGSFDLKADDNLNQLQVKLKERLKGKKFLIVLDDVWNDNYNKWDELRNVFVQGDIGSKIIVTTRKESVALMMGNEQISMDNLSTESSWSLFKTHAFENMGPMGHPELEEVGKQIAAKCKGLPLALKTLAGMLRSKSEVEEWKRILRSEIWELPHNDILPALMLSYNDLPAHLKRCFSFCAIFPKDYPFRKEQVIHLWIANGLVPQEDVIIEDSGNQYFLELRSRSLFERVPNPSQGNTENLFLMHDLVNDLAQIASSKLCIRLEESQGSHMLEQSQHLSYSMGYGGEFEKLTPLYKLEQLRTLLPTCIDLPDCCHHLSKRVLHNILPRLTSLRALSLSCYEIVELPNDLFIKLKLLRFLDISRTEIKRLPDSICALYNLETLLLSSCYDLEELPLQMEKLINLRHLDISNTRLLKMPLHLSKLKSLQVLVGAKFLIGGLRMEDLGEVHNLYGSLSVVELQNVVDRREAVKAKMREKNHVDRLYLEWSGSSSADNSQTERDILDELRPHKNIKVVKITGYRGTNFPNWLADPLFLKLVKLSLRNCKNCYSLPALGQLPFLKFLSIREMHGITEVTEEFYGSWSSKKPFNCLEKLEFKDMPEWKQWDLLGSGEFPILEKLLIENCPELSLETVPIQLSSLKSFDVIGSPLVINFPLSILPTTLKRIKISDCQKLKLEQPTGEISMFLEELTLIKCDCIDDISPELLPRARKLWVQDWHNLTRFLIPTATETLDIWNCENVEILSVACGGTQMTSLTIAYCKKLKWLPERMQELLPSLKELHLSNCPEIESFPEGGLPFNLQQLAIRYCKKLVNGRKEWHLQRRLCLTALIIYHDGSDEEIVGGENWELPSSIQRLTIVNLKTLSSQHLKNLTSLQYLFIRGNLPQIQPMLEQGQCSHLTSLQSLQISSLQSLPESALPSSLSHLEISHCPNLQSLPESALPSSLSQLTINNCPNLQSLSESTLPSSLSQLEISFCPNLQYLPLKGMPSSLSELSIYKCPLLKPQLEFDKGEYWPNIAQFPTIKIDRECM
[1]
  Cell death/HR intensity, pBIN::35S-R3a, 1dpi: 0
  Cell death/HR intensity, pBIN::35S-R3a, 2dpi: 1
  Cell death/HR intensity, pBIN::35S-R3a, 3dpi: 2
  Cell death/HR intensity, pVnt1-R3a, 1dpi: 0
  Cell death/HR intensity, pVnt1-R3a, 2dpi: 0
  Cell death/HR intensity, pVnt1-R3a, 3dpi: 0
[2]
  Cell death/HR intensity, pBIN::35S-R3a, 1dpi: 1
  Cell death/HR intensity, pBIN::35S-R3a, 2dpi: 1
  Cell death/HR intensity, pBIN::35S-R3a, 3dpi: 2
  Cell death/HR intensity, pVnt1-R3a, 1dpi: 2
  Cell death/HR intensity, pVnt1-R3a, 2dpi: 3
  Cell death/HR intensity, pVnt1-R3a, 3dpi: 4
[3]
  Cell death/HR intensity, pBIN::35S-R3a, 1dpi: 0
  Cell death/HR intensity, pBIN::35S-R3a, 2dpi: 0
  Cell death/HR intensity, pBIN::35S-R3a, 3dpi: 0
  Cell death/HR intensity, pVnt1-R3a, 1dpi: 0
  Cell death/HR intensity, pVnt1-R3a, 2dpi: 0
  Cell death/HR intensity, pVnt1-R3a, 3dpi: 0
[4]
  Cell death/HR intensity, pBIN::35S-R3a, 1dpi: 0
  Cell death/HR intensity, pBIN::35S-R3a, 2dpi: 1
  Cell death/HR intensity, pBIN::35S-R3a, 3dpi: 1
  Cell death/HR intensity, pVnt1-R3a, 1dpi: 0
  Cell death/HR intensity, pVnt1-R3a, 2dpi: 1
  Cell death/HR intensity, pVnt1-R3a, 3dpi: 1
